Experimental data taken from patent publication US20050065102, “Medicinal compositions” (published 2005).

Target: HMG-I (HMGA1a), partially purified (Homo sapiens, UniProt P17096 P17096:2-107)
Test: pulldown; affinity column, eluted with 1 M NaCl; identified by peptide sequencing
Details: tags: ammonium sulfate and DEAE fractions from hypoxic SK-N-SH
Experimental: The above fraction (III) was dialyzed twice against 5 L of 50 mM Tris-HCl buffer (pH 7.5) at 4° C. for 4 hours. Then, the resulting dialysate was applied to 5′-amino-2′-O-methyl oligo RNA (5′-[…]-3′, SEQ ID NO: 24)-coupled CNBr-activated Sepharose 4B (manufactured by Pharmacia Biotech) affinity column. The above affinity column was washed with 10 ml of the above incubation buffer and then eluted with 15 ml of the incubation buffer containing 1 M NaCl to give a fraction having a binding activity to the RNA probe of No. 5 [fraction (IV), FIG. 7 (IV)] (FIG. 9, lane 4). The result of silver staining of fraction (IV) is shown in lane 4 in FIG. 8, and the result of RNA binding assay thereof is shown in lane 4 in FIG. 9.

HMG-I (HMGA1a), partially purified, sequence (P17096 2-107, one chain of several): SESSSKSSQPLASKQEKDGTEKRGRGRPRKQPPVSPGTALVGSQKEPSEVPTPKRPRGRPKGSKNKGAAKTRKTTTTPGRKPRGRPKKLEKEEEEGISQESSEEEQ

AUCUUCUUGGUGGUGCUCUACAAGUACCGCUGCUACAAGGUGAGGCCCU (ssRNA, 2'-OMe all, 5'-amino) [5'-amino-2'-O-methyl oligo RNA affinity ligand]: binds.
